For one assay, the target named is T1, LacI-CFP-Nup153 (human, UniProt P49790 1-1475).
T1 sequence: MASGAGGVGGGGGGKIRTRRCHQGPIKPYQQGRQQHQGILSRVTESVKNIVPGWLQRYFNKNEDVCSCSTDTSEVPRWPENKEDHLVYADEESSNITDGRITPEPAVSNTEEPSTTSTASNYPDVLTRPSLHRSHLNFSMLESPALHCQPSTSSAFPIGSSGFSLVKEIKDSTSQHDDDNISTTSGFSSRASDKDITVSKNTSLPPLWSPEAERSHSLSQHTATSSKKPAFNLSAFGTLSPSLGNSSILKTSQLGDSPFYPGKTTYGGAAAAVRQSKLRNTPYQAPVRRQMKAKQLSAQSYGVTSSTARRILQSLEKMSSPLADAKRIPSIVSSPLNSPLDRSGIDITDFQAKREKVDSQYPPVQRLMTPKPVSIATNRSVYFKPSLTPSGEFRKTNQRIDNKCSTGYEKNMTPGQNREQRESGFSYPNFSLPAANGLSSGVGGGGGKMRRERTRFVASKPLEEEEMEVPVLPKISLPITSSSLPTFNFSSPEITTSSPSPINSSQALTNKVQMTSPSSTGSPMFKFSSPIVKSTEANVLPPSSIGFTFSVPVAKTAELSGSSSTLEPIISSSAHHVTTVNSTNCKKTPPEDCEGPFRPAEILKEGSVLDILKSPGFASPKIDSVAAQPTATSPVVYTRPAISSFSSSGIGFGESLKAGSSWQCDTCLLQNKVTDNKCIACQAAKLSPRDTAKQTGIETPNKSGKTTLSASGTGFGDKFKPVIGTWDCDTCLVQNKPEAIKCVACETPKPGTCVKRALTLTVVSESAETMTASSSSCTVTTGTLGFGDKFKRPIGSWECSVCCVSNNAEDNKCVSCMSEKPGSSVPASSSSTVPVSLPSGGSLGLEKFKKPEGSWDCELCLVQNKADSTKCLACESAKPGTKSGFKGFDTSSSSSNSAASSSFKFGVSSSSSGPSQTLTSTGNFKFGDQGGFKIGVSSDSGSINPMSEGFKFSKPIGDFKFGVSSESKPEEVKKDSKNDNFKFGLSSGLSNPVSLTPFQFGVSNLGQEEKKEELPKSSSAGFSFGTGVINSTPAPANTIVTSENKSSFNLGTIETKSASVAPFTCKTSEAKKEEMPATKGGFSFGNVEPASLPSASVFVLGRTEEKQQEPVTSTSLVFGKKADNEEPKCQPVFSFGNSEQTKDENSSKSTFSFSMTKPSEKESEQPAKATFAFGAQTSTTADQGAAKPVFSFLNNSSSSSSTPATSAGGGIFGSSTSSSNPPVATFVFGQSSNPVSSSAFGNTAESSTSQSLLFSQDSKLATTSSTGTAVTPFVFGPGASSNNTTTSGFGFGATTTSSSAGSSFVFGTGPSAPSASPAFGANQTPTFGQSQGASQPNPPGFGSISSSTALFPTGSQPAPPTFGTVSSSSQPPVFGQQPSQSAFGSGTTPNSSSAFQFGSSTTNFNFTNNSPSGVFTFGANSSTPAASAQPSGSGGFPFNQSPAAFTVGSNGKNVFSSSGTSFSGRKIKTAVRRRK
As to the kind of experiment: LacI/LacO array recruitment in cells.

Another assay addresses T2, LacI-CFP-Nup107 (human, UniProt P57740 1-925).
T2 sequence: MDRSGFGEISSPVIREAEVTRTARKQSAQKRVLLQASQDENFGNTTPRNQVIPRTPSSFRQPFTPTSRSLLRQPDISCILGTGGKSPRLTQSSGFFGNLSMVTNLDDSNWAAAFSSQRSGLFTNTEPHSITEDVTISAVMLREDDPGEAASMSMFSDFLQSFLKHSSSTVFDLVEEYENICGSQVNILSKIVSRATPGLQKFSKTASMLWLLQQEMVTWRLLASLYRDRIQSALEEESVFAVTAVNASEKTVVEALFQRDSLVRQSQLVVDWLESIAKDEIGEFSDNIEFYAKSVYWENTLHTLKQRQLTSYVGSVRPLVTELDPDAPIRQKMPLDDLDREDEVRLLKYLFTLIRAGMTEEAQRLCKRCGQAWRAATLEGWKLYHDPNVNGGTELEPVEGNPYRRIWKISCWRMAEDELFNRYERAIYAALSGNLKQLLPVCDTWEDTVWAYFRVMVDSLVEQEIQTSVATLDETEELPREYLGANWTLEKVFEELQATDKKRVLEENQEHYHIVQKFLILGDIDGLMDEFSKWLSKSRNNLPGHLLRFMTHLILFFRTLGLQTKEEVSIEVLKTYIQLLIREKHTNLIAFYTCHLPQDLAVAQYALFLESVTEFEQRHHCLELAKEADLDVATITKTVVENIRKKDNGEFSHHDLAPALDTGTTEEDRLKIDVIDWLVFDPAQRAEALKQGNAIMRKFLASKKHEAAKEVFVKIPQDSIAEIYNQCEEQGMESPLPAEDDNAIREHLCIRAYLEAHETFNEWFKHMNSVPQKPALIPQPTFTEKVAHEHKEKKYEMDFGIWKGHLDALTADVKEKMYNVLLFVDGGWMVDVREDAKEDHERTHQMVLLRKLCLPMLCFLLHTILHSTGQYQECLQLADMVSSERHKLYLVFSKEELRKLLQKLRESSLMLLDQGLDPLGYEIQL
Put plainly: LacI/LacO array recruitment in cells.

B1: Nup93 (endogenous) (natural protein)
chain: MDTEGFGELLQQAEQLAAETEGISELPHVERNLQEIQQAGERLRSRTLTRTSQETADVKASVLLGSRGLDISHISQRLESLSAATTFEPLEPVKDTDIQGFLKNEKDNALLSAIEESRKRTFGMAEEYHRESMLVEWEQVKQRILHTLLASGEDALDFTQESEPSYISDVGPPGRSSLDNIEMAYARQIYIYNEKIVNGHLQPNLVDLCASVAELDDKSISDMWTMVKQMTDVLLTPATDALKNRSSVEVRMEFVRQALAYLEQSYKNYTLVTVFGNLHQAQLGGVPGTYQLVRSFLNIKLPAPLPGLQDGEVEGHPVWALIYYCMRCGDLLAASQVVNRAQHQLGEFKTWFQEYMNSKDRRLSPATENKLRLHYRRALRNNTDPYKRAVYCIIGRCDVTDNQSEVADKTEDYLWLKLNQVCFDDDGTSSPQDRLTLSQFQKQLLEDYGESHFTVNQQPFLYFQVLFLTAQFEAAVAFLFRMERLRCHAVHVALVLFELKLLLKSSGQSAQLLSHEPGDPPCLRRLNFVRLLMLYTRKFESTDPREALQYFYFLRDEKDSQGENMFLRCVSELVIESREFDMILGKLENDGSRKPGVIDKFTSDTKPIINKVASVAENKGLFEEAAKLYDLAKNADKVLELMNKLLSPVVPQISAPQSNKERLKNMALSIAERYRAQGISANKFVDSTFYLLLDLITFFDEYHSGHIDRAFDIIERLKLVPLNQESVEERVAAFRNFSDEIRHNLSEVLLATMNILFTQFKRLKGTSPSSSSRPQRVIEDRDSQLRSQARTLITFAGMIPYRTSGDTNARLVQMEVLMN
Consider B1, for which the “percent of transfected cells showing colocalization” value in the assay with LacI-CFP-Nup153 came out at 23%; with LacI-CFP-Nup107, 9%.

These data come from PMC4615246 (Nucleus, 2015).
